Measurements reported in patent US10940198B2, “Herpes zoster vaccine composition” (MOGAM INSTITUTE FOR BIOMEDICAL RESEARCH, priority 2016, dated 2021).

How the values were obtained:
[1] = test system: VZV antigen; assay: VZV antigen-specific IgG titer (ELISA) after immunization; format: in vivo, C57BL/6 mice; details: Experimental Example 10, FIG. 12; gE alone versus gE together with gI or IE63 antigen
Procedure: (§1) Since humans have a history of chickenpox infection, in order to mimic chickenpox infection in mice, live attenuated vaccine (LAV, 3000 pfu) was subcutaneously injected once to female C57BL/6 mice to perform primary immunization (LAV priming). After 28 days from the LAV priming (Day 0), various VZV vaccine compositions with or without VZV protein immunogen or adjuvant were administered by intramuscular injection to perform secondary immunization. […]
After performing the primary immunization and the secondary immunization, ELISA (enzyme-linked immunosorbant assay) was carried out for measuring VZV antigen-specific IgG titer. […] The HRP reaction was stopped by adding ELISA stop solution and optical density (OD) was measured using a spectrometer at a wavelength of 450 nm.
Various VZV antigen-specific IgG titers depending on the use of SLA-SE were determined in the same manner as in Experimental Example 2-1 except that any one of gE, gI, IE63, gB, gC, and gL was used as an antigen in the secondary immunization and SLA-SE was used as an adjuvant, and the results are summarized in FIGS. 8 and 9. […]

[2] = test system: entire VZV (VZV lysate); assay: IFN-γ ELISPOT assay, leukocyte stimulation with VZV lysate; format: in vivo, C57BL/6 mice; details: Experimental Example 10, FIG. 12; gE alone versus gE together with gI or IE63 antigen
Procedure: as §1
After performing the primary immunization and the secondary immunization, mouse IFN-γ ELISPOT (enzyme-linked immunospot) assay was carried out to confirm VZV antigen-specific cell-mediated immune response (CMI). […] The number of the resulting spots were counted with a device.
The gE protein, gE OLP, or VZV lysate-specific cell-mediated immune responses were measured according to the method of Experimental Example 2-2 (IFN-γ ELISPOT assay), and the experimental results are summarized in FIGS. 3, 4, and 5. […]
The gE protein, gE OLP, or VZV lysate-specific cell-mediated immune responses were measured according to the method of Experimental Example 2-2 (IFN-γ ELISPOT assay), and the experimental results are summarized in FIGS. 15, 16, and 17.

B1: gE antigen: VZV glycoprotein E of SEQ ID NO: 1 (protein)
chain: MGTVNKPVVGVLMGFGIITGTLRITNPVRASVLRYDDFHTDEDKLDTNSVYEPYYHSDHAESSWVNRGESSRKAYDHNSPYIWPRNDYDGFLENAHEHHGVYNQGRGIDSGERLMQPTQMSAQEDLGDDTGIHVIPTLNGDDRHKIVNVDQRQYGDVFKGDLNPKPQGQRLIEVSVEENHPFTLRAPIQRIYGVRYTETWSFLPSLTCTGDAAPAIQHICLKHTTCFQDVVVDVDCAENTKEDQLAEISYRFQGKKEADQPWIVVNTSTLFDELELDPPEIEPGVLKVLRTEKQYLGVYIWNMRGSDGTSTYATFLVTWKGDEKTRNPTPAVTPQPRGAEFHMWNYHSHVFSVGDTFSLAMHLQYKIHEAPFDLLLEWLYVPIDPTCQPMRLYSTCLYHPNAPQCLSHMNSGCTFTSPHLAQRVASTVYQNCEHADNYTAYCLGISHMEPSFGLILHDGGTTLKFVDTPESLSGLYVFVVYFNGHVEAVAYTVVSTVDHFVNAIEERGFPPTAGQPPATTKPKEITPVNPGTSPLLR
modifications: Human herpesvirus 3
In the case of B1, the VZV-specific antibody response [1] is reported as “not significantly different” and the “VZV-specific T cell response” value [2] is reported as “not significantly different”.
